The target in assay [1] is T1, human MUC17 on NUGC4 endogenous tumor cells (human, UniProt Q685J3 26-4493). Briefly: FACS on NUGC4 cells, MFI. Here is the method: (§1) Then a complete medium was added to stop the digestion, and the cells were blown into a single cell suspension. After counting, the cells were centrifuged, and the cell pellet was resuspended to 2×10⁶ cells/mL in an FACS buffer (PBS+2% fetal bovine serum), and added to a 96-well FACS reaction plate at 100 µL/well. The plate was centrifuged, and the supernatant was discarded. An antibody sample to be tested (diluted in a 3-fold gradient from a starting concentration of 100 nM) was added at 50 µL/well and uniformly mixed with the cells, and the mixture was incubated at 4° C. for 1 h. […] The results were tested and analyzed by FACS (FACS Canto™, purchased from BD) after the plate was centrifuged and washed 3 times with a PBS buffer and resuspended with 100 μL of PBS. Data analysis was performed by software (FlowJo) to obtain the mean fluorescence intensity (MFI) of the cells. Then, analysis was performed by software (GraphPad Prism8), data were fitted, and EC50 values were calculated. As shown in FIGS. 3A-3B, the recombinant antibodies Lab315-huFc, Lab316-huFc, Lab320-huFc, Lab331-huFc, and Lab332-huFc are all capable of binding specifically to NUGC-4 cells.

The target of assay [2] is T2, Cyno MUC17 ECD3577-his (His-tagged cynomolgus monkey MUC17 protein extracellular domain fusion protein) (cynomolgus monkey).
T2 construct: also called monkey MUC17-his protein; monkey MUC17 ECD3577-His
T2 chain: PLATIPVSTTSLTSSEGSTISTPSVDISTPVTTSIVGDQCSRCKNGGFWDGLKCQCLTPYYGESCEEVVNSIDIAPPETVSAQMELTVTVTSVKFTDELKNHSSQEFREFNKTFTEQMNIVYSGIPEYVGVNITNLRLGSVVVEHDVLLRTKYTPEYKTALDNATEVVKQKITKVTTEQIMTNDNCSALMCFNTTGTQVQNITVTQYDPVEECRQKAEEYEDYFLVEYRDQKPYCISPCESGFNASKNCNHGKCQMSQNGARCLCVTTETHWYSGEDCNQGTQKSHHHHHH
The assay can be described thus: ELISA on coated monkey MUC17 ECD3577-His, OD450. The protocol: (§2) To assay the binding activity of the humanized antibodies with the monkey MUC17-his protein, the monkey MUC17-his protein was diluted with PBS to a final concentration of […] and subjected to ELISA assay and data analysis according to the method described in Example 3.3. The humanized antibodies SCR-7724, SCR-7782, SCR-7783, SCR-7784, and SCR-7785 have cross-binding activity with the monkey MUC17 protein, maintaining the binding ability of the recombinant antibody.

Assay [3] deals with T2, Cyno MUC17 ECD3577-his (His-tagged …). The assay can be described thus: ELISA on coated monkey MUC17 ECD3577-His, OD450. Here is the method:
as §2
In general terms: ELISA stands for enzyme-linked immunosorbent assay.

The target of assay [4] is T1, human MUC17 on NUGC4 endogenous tumor …. Briefly: FACS on NUGC4 cells, MFI. The protocol:
as §1
(§3) The preparation of the assay cells and the antibodies to be tested and the assay were performed with reference to Example 3.4. […]
This is another data set of the same source.

Assay [5] deals with T3, Human MUC17 ECD4131-his (His-tagged human MUC17 protein extracellular domain fusion protein) (human, UniProt Q685J3 4131-4393).
T3 construct: a truncation of the extracellular domain; also called human MUC17-his protein; human MUC17-His
Briefly: ELISA on coated human MUC17 ECD4131-his, OD450. The protocol:
(§4) A human MUC17-his protein was diluted with PBS to a final concentration of […] and then added to a 96-well ELISA plate at 50 µL/well. The plate was incubated at 4° C. overnight. The next day, the plate was washed 2 times with PBST, and a blocking buffer [PBS+2% (w/w) BSA] was added for blocking at room temperature for 2 h. The blocking buffer was discarded, and the recombinant antibody and positive and negative control antibody with a starting concentration of 100 nM serially diluted by 3 folds were added at 50 μL/well. After incubation at 37° C. for 1 h, the plate was washed 3 times with PBST. A horseradish peroxidase (HRP)-labeled secondary antibody (purchased from Merck, Cat. No. AP113P) was added for incubation at 37° C. for 1 h, and the plate was washed 5 times with PBST. A TMB substrate was added at 50 μL/well for incubation at room temperature for 10 min, and then a stop solution (1.0 M HCl) was added at 50 µL/well. The OD₄₅₀ nm values were read by an ELISA plate reader (Multimode Plate Reader, EnSight, purchased from Perkin Elmer).

Assay [6] concerns the target T3, Human MUC17 ECD4131-his (His-tagged …). Briefly: ELISA on coated human MUC17 ECD4131-his, OD450. This is another data set of the same source.
Assay [7] concerns the target T1, human MUC17 on NUGC4 endogenous tumor …. Briefly: FACS on NUGC4 cells, MFI. Here is the method:
as §1, §3
This is another data set of the same source.

Assay [8] concerns the target T3, Human MUC17 ECD4131-his (His-tagged …). Briefly: ELISA on coated human MUC17 ECD4131-his, OD450. The protocol: as §4
This is another data set of the same source.

For assay [9] the target is unchanged. Briefly: ELISA on coated human MUC17 ECD4131-his, OD450. The source holds these as a separate data set.
Assay [10] deals with T1, human MUC17 on NUGC4 endogenous tumor …. Briefly: FACS on NUGC4 cells, MFI. Here is the method:
as §1, §3
This is another data set of the same source.

For assay [11], the target named is T3, Human MUC17 ECD4131-his (His-tagged …). The assay can be described thus: ELISA on coated human MUC17 ECD4131-his, OD450. Here is the method: as §4
This is another data set of the same source.

This is an account of results in US20250297030A1 (SHANDONG SIMCERE BIOPHARMACEUTICAL, published 2025).

What is called EC50 (read off the curve) is the concentration at which the effect is half-maximal.

Read-outs that look alike come from different tables or passages of the source.

B1: 2D11-hIgG1 (antibody, V domains shown)
VH: QVQLVESGGGVVQPGRSLRLSCAASGFTFSNHGMHWVRQAPGKCLEWVAGIWSDASNKYYAEAVKGRFTISRDTSKNTLYLQMNSLRAEDTAVYYCARATYTTGWSYFDYWGQGTLVTVSS
VL: SYELTQSPSVSVSPGQTASITCSGDKLGDKYTSWYQQKPGQSPVLVIYHDRKRPSGIPERFSGSNSGNTATLTISGTQAMDEADYYCQAYDRSTAWVFGCGTKLTVLR
notes: Control antibody from WO2019133961A1, expressed as human IgG1 + kappa; also called 21D11; MUC17 control antibody
For the molecule B1, the 50% effective concentration (EC50 (read off the curve)) was ~0.07 nM in assay [1]; ~0.01 nM in assay [2]; ~0.01 nM in [3]; ~0.1 nM in assay [4]; ~0.02 nM in assay [5]; ~0.006 nM in [6]. Also, the “EC50 (read off the curve)” value is ~0.1 nM in assay [7]; ~0.006 nM in [8]; ~0.02 nM in assay [9]; ~0.05 nM in assay [10]; ~0.03 nM in assay [11].
